# According to the RNAGym collection of RNA variant scans (doi:10.1073/pnas.2313332121):
# Variants at the floor of the assay were thinned out.
# B1: TPR 5TU (parent)
# chain: GGAUCUUCUCGAUCUAACAAAAAAGACAAAUCUGCCACAAAGCUUGAGAGCAUCUUCGGAUGCAGAGGCGGCAGCCUUCGGUGGCGCGAUAGCGCCAACGUUCUCAACUAUGACACGCAAAACGCGUGCUCCGUUGAAUGGAGUUUAUCAUG
# Variants of: B1
# Test: polymerase ribozyme fitness, log enrichment relative to wild type (log ratio); higher = more active; in vitro selection for triplet polymerase activity
# Outline: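 PCR was used to build mutant libraries for each subunit of a heterodimeric triplet polymerase ribozyme, which were then transcribed. A single in vitro selection round, in triplicate, used a frozen incubation at −7 °C and recovered extended constructs by gel excision, streptavidin beads and RT-PCR. Fitness is the logarithm of genotype enrichment relative to wild-type enrichment, averaged over replicates with inverse-variance weights. The logarithm is base 2, and after Illumina sequencing only genotypes with ≥10 input reads and ≥1 read per output were kept.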
row,Variant,polymerase ribozyme fitness (log ratio)
1,C54U A64G G68A U77C G83A G88U U90G C132U U139G,≤ -4.2
2,C18G U61A,-0.567
3,A39U U45G C85A A91C G92C,≤ -4.2
4,C10U C27U U55A G59C G84A,≤ -4.2
5,A17C G59C U102G C123A,-2.05
6,U55A G80A,-1.65
7,A24U G25C A28G A30G A49U G83A C87A,≤ -4.2
8,A22C G92C U101G C108A A120U,-4.07
9,U4A C18U G67A C93G G124A,≤ -4.2
10,A52U G136A,-0.592
11,A26U A91G G140C C149A,≤ -4.2
12,U31A A40U C85G A106G G140A C149A,≤ -4.2
13,A30C C57G C63U G65U C96U A97U,≤ -4.2
14,U4A A37U G94C A150G,-4.19
15,G25C G88U G124A G128U U135C,≤ -4.2
16,U6C A20C A28C A37U G42U G71A C85U C99G A106G C131G,≤ -4.2
17,U13C A17C G67C U77G A89C A120C,≤ -4.2
18,G46C U109G,-1.81
19,C85U U139C,-3.16
20,C57U G94U,-0.85
21,C36U A66G G112A A142U,≤ -4.2
22,A49C C95U C96G,-3.85
23,A49G U55G C57U A60G C75G C76U U90A U102C U134G G140C,≤ -4.2
24,C18U G83C,-1.3

row,Variant,polymerase ribozyme fitness (log ratio)
1,A26U G46U,-3.87
2,A40C A52U G68C C85A G128C,≤ -4.2
3,G34A C87U A89U G100A C103G A107U G124C U135G G140A G141C,≤ -4.2
4,U45A G126U,-3.51
5,A20G A22U G70U C85G A110U A121C,≤ -4.2
6,C76A G83C A137G,-3.62
7,U82G C85U A107U,-3.59
8,A21U U33G A122U U144G,-3.94
9,U6G A12U A28C A40C G94C,≤ -4.2
10,A60U G92U G141C,-2.82
11,C38A U55A U135A U146C,-1.06
12,C76A C85A,-1.96
13,A20U C51U G83A C93G C96U C103A C105A,≤ -4.2
14,C132U A150G,-2.47
15,A16G C38U G50C U55A C57U C85G A120G A137U G143C,≤ -4.2
16,A30U C32G U55G G74A A89G C93A G133U A142C,≤ -4.2
17,A19U C38G G59C G86A C99U G117U C118A U127A A138G,≤ -4.2
18,A30U A73G,-3.78
19,A3G C14G U55A U56A C85U,-4.18
20,A28U G65U U82G U101G C103A G152U,≤ -4.2
21,U56A G59A C96U,0.392
22,A52C A113U,-3.88
23,G48C U53G,-3.59
24,A23C A49G C93U U148C,≤ -4.2

row,Variant,polymerase ribozyme fitness (log ratio)
1,A37U A47C C85U C95U A113C U148A G152U,≤ -4.2
2,A52G U109G A122U,-1.46
3,A41C A47C U56A C85U,-1.41
4,C35U A47G C99G G152A,-3.48
5,G58A U77C G80U U90G C93A A121G A142G,≤ -4.2
6,U31A A52C G58C G83A,-4.11
7,G124A C125G,0.356
8,U15G C18G A40U,-1.5
9,A3U C36U G67U C95A,≤ -4.2
10,A12U A19G U82C G83A A119U,-4.07
11,G50U C63U C79G C131G A137C,≤ -4.2
12,G48A C51U C54A U82G A120U,-3.66
13,A20G U56G G117C,-0.934
14,U9A A47C,-4.13
15,A22G C108G C123G A150G,≤ -4.2
16,U33C C95U,-2.01
17,A16C A21C C57A G88U C103G U130G,≤ -4.2
18,C76G A91U A106G U135A,≤ -4.2
19,A17U G94C C132U,-1.54
20,G48C,0.0216
21,G48U C149G,≤ -4.2
22,C87A A107C,≤ -4.2
23,C8A C10U U33A G81U C87A C103G A147C,≤ -4.2
24,A26C G42A G46C A49G A52C C54U A91U C99U U109G C132U G140U,≤ -4.2

row,Variant,polymerase ribozyme fitness (log ratio)
1,C85A C123U,-1.2
2,U31C C35U G68C G92U U104A A115U A119C G143A,≤ -4.2
3,G42C U55A A66G U144A,≤ -4.2
4,G42U A98U U102G A120U C132G U135A A147C,≤ -4.2
5,U7G A30C C32G C51U U144A,≤ -4.2
6,C8G C54U G59C G81U C96A U144C,≤ -4.2
7,A21C U53A U56A C69U A98U G117C C118G U134A,≤ -4.2
8,G11C A17U C79G G86U U101G C125U G152A,≤ -4.2
9,U61G U101C,-2.61
10,G11A G34C A47G C103G A121U,≤ -4.2
11,G59A C93A U135C U146A,-3.8
12,C8G C125A,-3.82
13,A17G C93A,-2.46
14,U55A C72U C76U U78C G84A,-2.57
15,A21U G34U C51U G86A A89U U145G,≤ -4.2
16,A19C A21C C35U G59U C75U,-1.16
17,C5U A49C G81U C93G,≤ -4.2
18,A49U C85G A115C,-3.64
19,A22G A113C,-2.12
20,U9G U15G C27G U31A C38A A66C G67A C87U C99G G143C,≤ -4.2
21,A26U A49U A137G,≤ -4.2
22,G86A U102G,-4.05
23,A49C C76A,≤ -4.2
24,A17C A24G A39U U56A C103G G136U,≤ -4.2

row,Variant,polymerase ribozyme fitness (log ratio)
1,U7C G46A G65U C76A U77G C79A G94A C96A U135A U144G G152U,≤ -4.2
2,C35A A39C G83A C114A G117A C123G G140U,≤ -4.2
3,A28G C43U A113U G117A A138G,≤ -4.2
4,C72U G124U A142G,-2
5,A22U A41U A60U A106U,-4.16
6,A24U U135C,-2.21
7,U77C G94C,-3.48
8,A17G C57U C96U U127C C131A G133U U146C,≤ -4.2
9,U55A G84A G117U,-0.634
10,U44A U53A G86U C132U U135G,≤ -4.2
11,C14G U82A G84A C87U C118G,-3.78
12,A16U A52U G74A C87A A119U U148G,≤ -4.2
13,A17C A110U,-4
14,C10G A37G G92C U135G A137G C149G,≤ -4.2
15,C54G C114U G143C,-4.16
16,A19C C87U A97G A137U A142C,-4.12
17,A24U G140A,-4.12
18,C8A C18G A40G C54G A73C C87A U90A C114U,≤ -4.2
19,A49C C51A C99U C132G,≤ -4.2
20,A21U A49G U55A G84A U104C A137U G140C A150C,≤ -4.2
21,C5U A24G G94A C123U G140U,≤ -4.2
22,G81A C95A A98U,-0.289
23,C57G C114A,-3.32
24,U4C A20G C85A A98C A115G,-2.8

row,Variant,polymerase ribozyme fitness (log ratio)
1,G42C A60U G92U A119U C125A,≤ -4.2
2,G81C C93U U101G,0.439
3,A29G U55A C95U U101C U109A G133A,≤ -4.2
4,C79U C85U A115C,≤ -4.2
5,C43U G58A U90C C132A G143U,≤ -4.2
6,A19U A52C,-1.34
7,C27U C63U C87A G141U,≤ -4.2
8,C93A U148G G152U,≤ -4.2
9,G46C U102C G136U,≤ -4.2
10,C8U U13C A22G C93U G126A,-1.08
11,A73G C87G U101G U139C,≤ -4.2
12,C8U A21G A41C G50A G65C G88A,≤ -4.2
13,U9A A23C U31G A73U C93G A106G G117A G133A A150G,≤ -4.2
14,U13G U56A C76G A91U C93U,≤ -4.2
15,G88A A106G,-3.55
16,C10U C38U G80A G94C C125A G143A,≤ -4.2
17,G50U G86U,-1.71
18,G25U A39G U61A U77A C87U G141A U151A,≤ -4.2
19,C35U G92A A122G,-3.92
20,C54U G83U C85A U90G,≤ -4.2
21,A41U C93A,-3.19
22,U6G A21U A26G A40C A66G A107U U135A G141A,≤ -4.2
23,C54U G84A U102G,-4.14
24,A21U C69U C96A C129A U135A G143U,-0.753

row,Variant,polymerase ribozyme fitness (log ratio)
1,A30C C96A U135A A137U,≤ -4.2
2,C10U C14G C76U A106G A107G C108U,≤ -4.2
3,C36U U55A,-0.574
4,A60U U139A A150U,≤ -4.2
5,A3U A22C C87A G92U,-0.18
6,G48U G92U A121C A150C,≤ -4.2
7,A91C C96A G126A,≤ -4.2
8,A22U G34A G62C G68C C96A,≤ -4.2
9,U7G C38A G83A G84U U148C,≤ -4.2
10,A22U A66C C85G,≤ -4.2
11,C85A U144G,-0.777
12,A40U U61A A107U G128U U151C,≤ -4.2
13,C32G A41U A91U A107G C125G U135C,≤ -4.2
14,G84U G136A G141C,-1.29
15,U15G A49C G50A U78A A91C C93A G126U,≤ -4.2
16,C96G C125G U130G C132A,≤ -4.2
17,A40U A91C A120C C129A U151A,≤ -4.2
18,A12U G141C,-0.54
19,C76U G84U C125U G141U,-3.46
20,U4A U53A U82A A91U A115G U148G,≤ -4.2
21,U55A A60G A137C,-3
22,C96G A98U U144G,-0.0548
23,A24G C123U C132U U134A,≤ -4.2
